From US20220162322A1 (CAPELLA BIOSCIENCE, published 2022) come the findings set out here.

Residue numbers refer to the chain shown, from its start.

B1: 3E05_var14 (antibody, human IgG1, V domains shown)
VH: QVQLVESGGGLVKPGGSLRLSCAASGFTFSSYTMSWVRQAPGKGLEWVSYISSGGGNTYYADSVKGRFTISRDNAKNSLYLQMNSLRAEDTAVYYCARHDYYDGGLYYAMDYWGQGTLVTVSS
VL: DIVMTQSPDSLAVSLGERATINCKASQSVDYEGDSSMNWYQQKPGQPPKLLISAASTLESGVPSRFSGSGSGTDFTLTISSLQAEDVAVYYCQQTNEDPPTFGGGTKVEIK
notes: also called 3E05 VL4VH2 (var_14); 3E05VL4VH2 (var_14)
B2: 3E05_var6 (antibody, human IgG1, V domains shown)
VH: B1 VH
VL: B1 VL with A25S, E32D, V89T
notes: also called 3E05 VL2VH2 (var_6); 3E05VL2VH2 (var_6)
B3: 3E05_var1 (antibody, human IgG1, V domains shown)
VH: B1 VH with Q1E, S49A, A61P
VL: B1 VL with E32D
notes: also called 3E05 VL1VH1 (var_1)
B4: 3E05_var9 (antibody, human IgG1, V domains shown)
VH: B1 VH with Q1E, S49A, A61P
VL: B1 VL with A25S, E32D, S53Y, V89T
notes: also called 3E05 VL3VH1 (var_9)
B5: 3E05_var8 (antibody, human IgG1, V domains shown)
VH: B1 VH with Q1E, S49A, N57Q, A61P, D103E
VL: B1 VL with A25S, E32D, V89T
B6: 3E05_var13 (antibody, human IgG1, V domains shown)
VH: B1 VH with Q1E, S49A, A61P
VL: B1 VL
notes: also called 3E05 VL4VH1 (var_13)
B7: 3E05_var15 (antibody, human IgG1, V domains shown)
VH: B1 VH with Q1E, S49A, N57Q, A61P
VL: B1 VL
notes: also called 3E05 VL4VH3 (var_15)
B8: 3E05_var3 (antibody, human IgG1, V domains shown)
VH: B1 VH with Q1E, S49A, N57Q, A61P
VL: B1 VL with E32D
notes: also called 3E05 VL1VH3 (var_3)
B9: 3E05_var4 (antibody, human IgG1, V domains shown)
VH: B1 VH with Q1E, S49A, N57Q, A61P, D103E
VL: B1 VL with E32D
notes: also called 3E05 VL1VH4 (var_4)
B10: 3E05_var5 (antibody, human IgG1, V domains shown)
VH: B1 VH with Q1E, S49A, A61P
VL: B1 VL with A25S, E32D, V89T
notes: also called 3E05 VL2VH1 (var_5)
B11: 3E05_var7 (antibody, human IgG1, V domains shown)
VH: B1 VH with Q1E, S49A, N57Q, A61P
VL: B1 VL with A25S, E32D, V89T
notes: also called 3E05 VL2VH3 (var_7)
B12: 3E05_var16 (antibody, human IgG1, V domains shown)
VH: B1 VH with Q1E, S49A, N57Q, A61P, D103E
VL: B1 VL
B13: 3E05_var2 (antibody, human IgG1, V domains shown)
VH: B1 VH
VL: B1 VL with E32D
notes: also called 3E05 VL1VH2 (var_2)
B14: 3E05_var10 (antibody, human IgG1, V domains shown)
VH: B1 VH
VL: B1 VL with A25S, E32D, S53Y, V89T
notes: also called 3E05 VL3VH2 (var_10)
B15: 3E05_var11 (antibody, human IgG1, V domains shown)
VH: B1 VH with Q1E, S49A, N57Q, A61P
VL: B1 VL with A25S, E32D, S53Y, V89T
notes: also called 3E05 VL3VH3 (var_11)
B16: chimeric mAb 25E06 (antibody, human IgG1, V domains shown)
VH: EVKLVESGGGLVKPGGSLKLSCAASGFTFSSYTMSWVRQTPEKRLEWVAYISGVGGDTYYPDSVKGRFTISRDNARNTLYLQMSSLRSEDTAMFYCARHHYSHYFWYFDVWGAGTTVTVSS
VL: DIVLTQSPASLAVSLGQRATISCKASQSVDYDGDGFMNWYQQKPGQPPKLLIYAASNLESGIPARFSGSGSGADFTLNIHPVEEEDAATYYCQQSNEDPPTFGGGTKLEIK
notes: also called Parental 25E06
B17: anti-BDCA-2 mAb BIIB059 (from patent WO2014093396) (antibody, V domains shown)
VH: DVQLVESGGGLVKPGGSLRLSCAASGFTFSTYTMSWVRQAPGKGLEWVATISPGDSFGYYYPDSVQGRFTISRDNAKNSLYLQMNSLRAEDTAVYYCTRDIYYNYGAWFAYWGQGTLVTVSS
VL: DIQLTQSPSSLSASVGDRVTITCKASQSVDYDGDSYMNWYQQKPGKAPKLLIYAASTLESGVPSRFSGSGSGTDFTLTISSLQPEDFATYYCQQANEDPRTFGQGTKVEIKR

T2 sequence (chain, as listed by the source limits assumed): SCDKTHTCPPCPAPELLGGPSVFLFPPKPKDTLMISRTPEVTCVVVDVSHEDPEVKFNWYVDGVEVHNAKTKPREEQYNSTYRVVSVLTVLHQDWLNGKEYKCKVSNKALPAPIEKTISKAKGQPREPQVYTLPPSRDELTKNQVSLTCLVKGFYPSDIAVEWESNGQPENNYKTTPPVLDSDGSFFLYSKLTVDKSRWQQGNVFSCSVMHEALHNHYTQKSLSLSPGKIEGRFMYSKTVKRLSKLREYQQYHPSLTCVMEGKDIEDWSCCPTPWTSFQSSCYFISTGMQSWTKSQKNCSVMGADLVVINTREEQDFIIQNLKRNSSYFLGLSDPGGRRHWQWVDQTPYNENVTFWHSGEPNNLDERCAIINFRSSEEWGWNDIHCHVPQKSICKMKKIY

The first assay addresses T1, BDCA-2 (CLEC4C, CD303) on human plasmacytoid dendritic cells (purified pDC or pDC within PBMC) (human, UniProt Q8WTT0 1-213).
T1 sequence: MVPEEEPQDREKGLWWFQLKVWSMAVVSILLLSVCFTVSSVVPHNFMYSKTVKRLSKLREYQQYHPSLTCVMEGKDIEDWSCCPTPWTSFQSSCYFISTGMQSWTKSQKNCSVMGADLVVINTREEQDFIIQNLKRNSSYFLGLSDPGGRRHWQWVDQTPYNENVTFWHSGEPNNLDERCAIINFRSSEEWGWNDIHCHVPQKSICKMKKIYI
As to the kind of experiment: cell-based or functional assay.
B1: the “IC50, ng/ml; inhibition of IFNα from ODN stimulated healthy donor PBMC” value came to 19.3 ng/mL and the “IC90, ng/ml; inhibition of IFNα from ODN stimulated healthy donor PBMC” value was 173 ng/mL.

For B2, the “IC50, ng/ml; inhibition of IFNα from ODN stimulated healthy donor PBMC” value turned out to be 12.3 ng/mL and the “IC90, ng/ml; inhibition of IFNα from ODN stimulated healthy donor PBMC” value is 110 ng/mL.

The next assay deals with T1, BDCA-2 (CLEC4C, CD303) on human …. In words: cell-based or functional assay. This is another data set of the same source.
As for B1, the “IC50, nM; inhibition of IFNα from ODN stimulated healthy donor PBMC” value is 0.13 nM and the “IC90, nM; inhibition of IFNα from ODN stimulated healthy donor PBMC” value worked out at 1.15 nM.

On to B2, for which the “IC50, nM; inhibition of IFNα from ODN stimulated healthy donor PBMC” value came to 0.08 nM and the “IC90, nM; inhibition of IFNα from ODN stimulated healthy donor PBMC” value is 0.73 nM.

A further assay concerns the target T2, human BDCA-2-Fc (hIgG1-Fc-hBDCA-2) (human).
T2 construct: also called huBDCA2-Fc
As to the kind of experiment: SPR (BIAcore), comparison of KD. In general terms: SPR reads the build-up and loss of mass on a sensor chip optically.
Regarding B3, the “fold higher affinity than parental wild type 3E05 and AC144” value is more than 100 fold.

Regarding B4, the “fold higher affinity than parental wild type 3E05 and AC144” value was more than 100 fold.

B1: the “fold higher affinity than parental wild type 3E05 and AC144” value is more than 100 fold.

Consider B5, for which the “fold higher affinity than parental wild type 3E05 and AC144” value is more than 100 fold.

Consider B6, for which the “fold higher affinity than parental wild type 3E05 and AC144” value is more than 100 fold.

Consider B7, for which the “fold higher affinity than parental wild type 3E05 and AC144” value is more than 100 fold.

Take B8: the “fold higher affinity than parental wild type 3E05 and AC144” value is more than 100 fold.

Turning to B9, the “fold higher affinity than parental wild type 3E05 and AC144” value is more than 100 fold.

As to B10, the “fold higher affinity than parental wild type 3E05 and AC144” value is more than 100 fold.

Turning to B2, the “fold higher affinity than parental wild type 3E05 and AC144” value was more than 100 fold.

As to B11, the “fold higher affinity than parental wild type 3E05 and AC144” value is more than 100 fold.

Turning to B12, the “fold higher affinity than parental wild type 3E05 and AC144” value was more than 100 fold.

In another assay the target is T2, human BDCA-2-Fc (hIgG1-Fc-hBDCA-2). As to the kind of experiment: ELISA on plate-coated human BDCA2-Fc. As for the experimental part: 100 ul per well of 0.5 μg/ml of human BDCA2-Fc in PBS pH 7.4 was incubated overnight at 4 C. The wells were then washed 3 times with PBST (PBS+0.05% Tween 20) and then blocked with 250 ul 4% Skimmed Milk (Marvel, cat. no. 3023033 Lot no. 7169) in PBS for 120 min at RT. The wells were washed and then incubated with 100 ul per well of humanized mAbs at 3 fold dilutions (from 1 μg/ml to 0.001 μg/ml) in 1% Skimmed Milk PBS buffer at pH 7.4. After 60 min at RT the wells were washed 3 times in PBST and 100 ul of mouse anti-human IgG (anti-CH1-HRP; 1:1000, BD Pharmigen cat. no. 555788) or donkey anti-mouse IgG (anti-mouse IgG-HRP) at 1:5000 dilution (Jackson ImmunoResearch, Cat. no. 715-035-150) in 1% Skimmed Milk PBS was added. Development was with TMB (ThermoFisher, cat. no. 00-4201-56), 100 ul/well and the reaction stopped with 100 μl/well H2SO4 (cat. nr. J/8430/15, lot nr.) and the absorbance read at 450 nm. The EC50 was calculated using Graphpad Prism software. A negative (1% Skimmed Milk/PBS) and positive control (anti-BDCA-2, AC144, Miltenyi Biotec, cat. no. 130-090-690) were utilised in the assay.
A word on the EC50: it is the concentration giving half of the maximal effect. A low value points to a more potent agent. B3 came in with a concentration giving a half-maximal response (EC50) of 510 pM.

Molecule B4 registered an EC50 of 1120 pM.

As for B1, the EC50 worked out at 320 pM.

The molecule B5 returned an EC50 of 210 pM.

The molecule B13 displayed an EC50 of 320 pM.

As for B6, the EC50 came out at 450 pM.

Regarding B14, the EC50 was determined as 710 pM.

The molecule B7 registered an EC50 of 250 pM.

B8 returned an EC50 of 270 pM.

The molecule B9 returned a half-maximal effective concentration (EC50) of 290 pM.

The molecule B10 displayed an EC50 of 510 pM.

Regarding B15, the EC50 was determined as 810 pM.

In turn, B2 returned an EC50 of 290 pM.

Turning to B11, the EC50 was 330 pM.

B12 had an EC50 of 250 pM.

The next assay has as its target T3, human BDCA-2 (CLEC4C) expressed on transfected U937 cells (human, UniProt Q8WTT0 1-213).
T3 construct: also called cell expressed human BDCA-2; Q8WTT0
T3 sequence: T1 sequence
In words: flow cytometry (MFI titration) on cells expressing human BDCA-2. As for the experimental part:
(§1) Cells expressing human and cynomolgus BDCA-2 were resuspend at 2×10⁶ cells/mi in FACS buffer (2% FBS/PBS) and 50 μl of the cell suspension was added per well, in a 96-well V bottom plate. The plate was centrifuge and the supernatant discarded. 12 serial, 2-fold dilutions of mAbs, starting at 50 μg/ml (range 50-0.024 μg/ml), in FACS buffer were prepared and 25 μl of the mAb dilutions added to wells, in triplicate. The plate was then incubated for 60 min at room temperature then centrifuged and washed 3× with 150 μl FACS buffer. To each well was then added 25 μl goat-anti-human PE conjugate (or goat-anti-mouse in the case of AC144), diluted 1:200 in FACS buffer. The plates were incubated for 60 min at room temperature protected from light and centrifuged and washed 3× with 150 μl FACS buffer. 25 μl per well of 2% PFA 2% was added and incubated for 20 min at 4° C., protected from light and analysed on the iQue screener.
(§2) Serial dilutions of the 4 chimeric mAbs (50-0.25 ug/ml) were prepared and incubated with cells expressing human and cynomolgus BDCA-2. After staining, the median fluorescence intensity (MFI) of the cells was measured and the data points of the dilution series were fitted on a sigmoidal curve after normalization to determine the EC50 values.
In general terms: A flow cytometer gives signals particle by particle.
As to B16, the EC50 was determined as 0.57 µg/mL.

The next assay deals with T4, cynomolgus BDCA-2 expressed on transfected U937 cells (cynomolgus, UniProt Q8WTT0 1-213 (human entry)).
T4 construct: also called cell expressed cynomolgus BDCA-2
T4 chain: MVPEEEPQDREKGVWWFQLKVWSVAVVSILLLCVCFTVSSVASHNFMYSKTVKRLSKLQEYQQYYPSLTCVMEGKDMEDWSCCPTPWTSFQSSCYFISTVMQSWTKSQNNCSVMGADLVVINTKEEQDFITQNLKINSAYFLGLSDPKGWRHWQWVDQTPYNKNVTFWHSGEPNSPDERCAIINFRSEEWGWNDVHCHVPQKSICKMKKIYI
As to the kind of experiment: flow cytometry (MFI titration) on cells expressing cynomolgus BDCA-2. As for the experimental part: as §1, §2
With B16, the midpoint of the response, the EC50, lay at 1.35 µg/mL.

The next assay deals with T2, human BDCA-2-Fc (hIgG1-Fc-hBDCA-2). In words: SPR (BIAcore T200), huBDCA2-Fc immobilised on CM5 chip, mAb injected. The method, then:
A BIAcore T200 was used with BIAcore run buffer (HBS-EP) at pH7.4. 692RU of huBDCA2-Fc was immobilized to a CM5 chip (CFJB156) utilising 5 μg/ml of huBDCA2-Fc with the BIAcore EDC/NHS kit according to the manufacturer's instructions. Two-fold dilutions of the humanized mAbs were injected starting at 200 nM down to 3.1 nM with a contact time of 60 s at a flow of 30 or 60 ul/min at 25° C. followed by an off-rate wash for 5 minutes with BIAcore buffer. […] The BIAcore T200 software was used to calculate Ka (1/Ms), Kd (1/s) and the KD (nM).
What is called Kd is the concentration at which binding is half-saturated. As to B3, the Kd was less than 10 pM.

In the case of B4, the Kd was less than 10 pM.

The molecule B1 came in with a Kd of less than 10 pM.

Molecule B5 returned a Kd of less than 10 pM.

Turning to B13, the Kd came to 300 pM.

In turn, B6 registered a Kd of less than 10 pM.

Turning to B14, binding was put at a Kd of 730 pM.

In the case of B7, the Kd is less than 10 pM.

In the case of B8, the Kd is less than 10 pM.

B9 had a Kd of less than 10 pM.

For the molecule B10, the Kd is less than 10 pM.

Regarding B15, the Kd worked out at 940 pM.

As for B2, the dissociation constant (Kd) was less than 10 pM.

In turn, B11 had a Kd of less than 10 pM.

Molecule B12 registered a Kd of less than 10 pM.

In turn, B17 yielded a Kd of 700 pM.
